In US20230295324A1 (published 2023):

How the values were obtained:
[1] = target: T1, cynomolgus monkey OX40 protein (Novoprotein, #CB17) (cynomolgus monkey); assay: ELISA, coated cyno OX40 protein
T1 construct: Bought recombinant protein; also called cyno OX40
Experimental: (§1) This example is intended to investigate the in vitro binding activity of the anti-OX40 HCAb monoclonal antibodies prepared in Example 1 to human and cynomolgus monkey OX40 proteins. The antibody binding assay at the protein level was performed using a human OX40 protein (Acro biosystem, #OX0-H5224) and a cynomolgus monkey OX40 protein (Novoprotein, #CB17). Briefly, a 384-well plate (PerkinElmer, #6007509) was coated with 1 μg/mL human OX40 protein and a cynomolgus monkey OX40 protein dissolved in PBS at 20 μL/well, and incubated at 4° C. overnight. The next day, the 384-well plate was washed three times with PBS containing 0.05% Tween (MEDICAGO, #09-9410-100), and blocked with PBS containing 2% milk (Bio-Rad, #170-6404) at 37° C. for 1 h. […] The plate was added with a stop buffer (BBI life sciences, #E661006-0200) at 20 μL/well, and read for OD₄₅₀₋₆₅₀ values using a plate reader (Molecular Devices, model: SpectraMax Plus). The values were analyzed with Graphad 8.0 and plotted.

[2] = target: T2, human OX40 on cells (CHO-K1/hu OX40) (human, UniProt P43489 29-277); assay: FACS, CHO-K1/hu OX40 cells
T2 construct: whole, on cells; Also used here for OX40 on the HEK293/OX40/NF-kb reporter cells and on human T cells in the functional assays; also called CHO-K1/OX40; human OX40 cells
T2 sequence (looked up): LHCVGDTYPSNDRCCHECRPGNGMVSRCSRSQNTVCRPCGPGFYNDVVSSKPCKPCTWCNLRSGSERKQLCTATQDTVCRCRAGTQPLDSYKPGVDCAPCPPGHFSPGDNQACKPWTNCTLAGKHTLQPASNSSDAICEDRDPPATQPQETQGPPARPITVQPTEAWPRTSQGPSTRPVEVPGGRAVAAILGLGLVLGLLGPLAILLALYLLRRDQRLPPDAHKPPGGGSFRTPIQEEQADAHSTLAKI
Experimental: This example is intended to investigate the in vitro binding activity of anti-human OX40 HCAb monoclonal antibodies to human OX40. The antibody binding assay at the cellular level was performed using a stable CHO-K1 cell strain overexpressing human OX40 (CHO-K1/hu OX40). Briefly, the CHO-K1/hu OX40 cells were digested, resuspended in an F12K complete medium and washed once with PBS. The cell density was adjusted to 1×10⁶ cells/mL with PBS. The cells were seeded in a 96-well V-bottom plate (Corning, #3894) at 100 μL/well, and centrifuged, and then the supernatant was discarded. Then, the test antibodies diluted in a 3-fold gradient at concentrations that were 2 times the final concentrations were added at 100 μL/well. The cells were incubated at 4° C. for 1 h away from light. Thereafter, the cells in each well were rinsed twice with 100 μL of pre-cooled PBS, and centrifuged at 500 g at 4° C. for 5 min, and then the supernatant was discarded. […] The plate was incubated away from light at 4° C. for 30 min. The cells in each well were rinsed twice with 100 μL of pre-cooled PBS, and centrifuged at 500 g at 4° C. for 5 min, and then the supernatant was discarded. Finally, the cells in each well were resuspended in 200 μL of pre-cooled PBS, and the fluorescence signal values were read using a BD FACS CANTOII.

[3] = target: T2, human OX40 on cells (CHO-K1/hu OX40); assay: FACS, blocking of biotin-human OX40L on CHO-K1/hu OX40 cells
Experimental: Briefly, the CHO-K1/hu OX40 cells were digested and resuspended in an F-12K complete medium, and the cell density was adjusted to 1×10⁶ cells/mL. The cells were seeded in a 96-well V-bottom plate (Corning, #3894) at 100 μL/well, and centrifuged, and then the supernatant was discarded. The test antigen-binding proteins diluted in a 3-fold gradient at concentrations that were 2 times the final concentrations were added at 100 μL/well, and the mixture was well mixed, wherein the antigen-binding protein had the highest final concentration of 100 nM, and a total of 8 concentrations were obtained. […] The cells were incubated at 4° C. for 1 h away from light. Thereafter, the cells were centrifuged at 4° C. for 5 min, and then the supernatant was discarded. […] The cells in each well were rinsed twice with 100 μL of pre-cooled PBS, and centrifuged at 500 g at 4° C. for 5 min, and then the supernatant was discarded. A 1:200 fluorescent secondary antibody PE Streptavidin (BD Biosciences, #554061) was added at 100 μL/well, and the cells were incubated away from light at 4° C. for 30 min. The cells in each well were rinsed twice with 200 μL of pre-cooled PBS, and centrifuged at 500 g at 4° C. for 5 min, and then the supernatant was discarded. Finally, the cells in each well were resuspended in 200 μL of precooled PBS. Fluorescence signal values were read using BD FACS CANTOII, and IC50 was calculated. Inhibition rate %={average MFI of non-blocking control well−MFI value of OX40 antibody}/{(average MFI of non-blocking control well)−average MFI of 100% blocking control well)}×100%.

[4] = target: T2, human OX40 on cells (CHO-K1/hu OX40); assay: cell-based or functional assay
[5] = target: T3, human OX40 protein (Acro biosystem, #OX0-H5224) (human, UniProt P43489 29-216); assay: ELISA, coated human OX40 protein
T3 construct: Bought recombinant protein
T3 sequence (looked up): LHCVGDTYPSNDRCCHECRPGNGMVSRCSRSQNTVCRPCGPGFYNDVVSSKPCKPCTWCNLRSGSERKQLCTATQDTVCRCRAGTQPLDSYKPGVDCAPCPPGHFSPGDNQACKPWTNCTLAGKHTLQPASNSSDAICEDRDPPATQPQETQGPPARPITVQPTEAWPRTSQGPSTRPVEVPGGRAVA
Experimental: as §1

B1: PR002061 (antibody, human IgG1, V domains shown)
VH: EVQLLESGGGLVQPGGSLRLSCAASGFTFSSYAMSWVRQAPGKGLEWVSAISGRGGSTYYADSVRGRFTISRDNSKNTLYLQMNSLRAEDTAVYYCANGMTGTTDVDYWGQGTLVTVSS
notes: no light chain; also called anti-OX40 HCAb antibody
EC50 [1]: 0.152 nM
Maximum OD [1]: 1.87 OD
EC50 [2]: 10.9 nM
Maximum MFI [2]: 1740 MFI
Maximum inhibition rate (%) [3]: 16%
EC50, HEK293/OX40/NF-kb luciferase reporter [4]: 23.2 nM
Maximum fluorescence signal value, HEK293/OX40/NF-kb luciferase reporter [4]: 156000 luminescence
EC50 [5]: 0.134 nM
Maximum OD [5]: 1.96 OD

B2: PR002056 (antibody, human IgG1, V domains shown)
VH: EVQLLESGGGLVQPGGSLRLSCAASGFTFSSYAMSWVRQAPGKGLEWVSAISGGGGSIFYADSVRGRFTISRDNSKNTLYLQMNSLRAEDTAVYYCANGMTGTTDVDYWGQGTLVTVSS
notes: as for B1
EC50 [1]: 0.0682 nM
Maximum OD [1]: 1.69 OD
EC50 [2]: 3.12 nM
Maximum MFI [2]: 2930 MFI
IC50 [3]: 43.7 nM
Maximum inhibition rate (%) [3]: 34%
EC50, HEK293/OX40/NF-kb luciferase reporter [4]: 4.89 nM
Maximum fluorescence signal value, HEK293/OX40/NF-kb luciferase reporter [4]: 154000 luminescence
EC50 [5]: 0.057 nM
Maximum OD [5]: 1.71 OD

B3: PR002057 (antibody, human IgG1, V domains shown)
VH: EVQLLESGGGLVQPGGSLRLSCAASGFIFSSYAMSWVRQAPGKGLEWVSAISGGGGSTFYADSVRGRFTISRDNSKNTLYLQMNSLRAEDTAVYYCADGMTGTTDVDYWGQGTLVTVSS
notes: as for B1
EC50 [1]: 0.133 nM
Maximum OD [1]: 1.76 OD
EC50 [2]: 12.8 nM
Maximum MFI [2]: 1670 MFI
Maximum inhibition rate (%) [3]: 12%
EC50, HEK293/OX40/NF-kb luciferase reporter [4]: 14.3 nM
Maximum fluorescence signal value, HEK293/OX40/NF-kb luciferase reporter [4]: 172000 luminescence
EC50 [5]: 0.124 nM
Maximum OD [5]: 1.76 OD

B4: PR002059 (antibody, human IgG1, V domains shown)
VH: EVQLLESGGGLVQPGGSLRLSCVVSGLTFSSYAMSWVRQAPGKGREWVSAISGRGGSTFYADSVRGRFTISRDNSKNTLYLQMNSLRAEDTAVYYCANGMTGSTDVDYWGQGTLVTVSS
notes: as for B1
EC50 [1]: 0.0774 nM
Maximum OD [1]: 1.9 OD
EC50 [2]: 1.35 nM
Maximum MFI [2]: 3630 MFI
IC50 [3]: 15.9 nM
Maximum inhibition rate (%) [3]: 79%
EC50, HEK293/OX40/NF-kb luciferase reporter [4]: 1.83 nM
Maximum fluorescence signal value, HEK293/OX40/NF-kb luciferase reporter [4]: 117000 luminescence
EC50 [5]: 0.0695 nM
Maximum OD [5]: 2 OD

B5: PR002060 (antibody, human IgG1, V domains shown)
VH: EVQLLESGGGLVQPGGSLRLSCAASGFTFSDYAMSWVRQAPGKGLEWVSAISGRGGSTYYADSVRGRFTISRDNSKNTLYLQMTSLRAEDTAVYYCANGMTGTTDVDYWGQGTLVTVSS
notes: as for B1
EC50 [1]: 0.0938 nM
Maximum OD [1]: 1.94 OD
EC50 [2]: 8.95 nM
Maximum MFI [2]: 1860 MFI
Maximum inhibition rate (%) [3]: 12%
EC50, HEK293/OX40/NF-kb luciferase reporter [4]: 15.1 nM
Maximum fluorescence signal value, HEK293/OX40/NF-kb luciferase reporter [4]: 132000 luminescence
EC50 [5]: 0.0828 nM
Maximum OD [5]: 2.09 OD

B6: PR002062 (antibody, human IgG1, V domains shown)
VH: EVQLLESGGGLVQPGGSLRLSCAASGFTFSSYAMSWVRQAPGKGQEWVSAISGSGGSTFYADSVRGRFTISRDNSKNTLYLQMSSLRAEDTAVYYCANGMTGTTDVDYWGQGTLVTVSS
notes: as for B1
EC50 [1]: 0.126 nM
Maximum OD [1]: 1.81 OD
EC50 [2]: 37.9 nM
Maximum MFI [2]: 1900 MFI
Maximum inhibition rate (%) [3]: 13%
EC50, HEK293/OX40/NF-kb luciferase reporter [4]: 25.2 nM
Maximum fluorescence signal value, HEK293/OX40/NF-kb luciferase reporter [4]: 149000 luminescence
EC50 [5]: 0.103 nM
Maximum OD [5]: 1.94 OD

B7: PR002064 (antibody, human IgG1, V domains shown)
VH: EVQLVETGGGLVQPGGSLRLSCAASGFTFSSYAMSWVRQAPGKGQEWVSAISGSGGSTFYADSVRGRFTISRDNSKNTLYLQMSSLRAEDTAVYYCANGMTGTTDVDYWGQGTLVTVSS
notes: as for B1
EC50 [1]: 0.218 nM
Maximum OD [1]: 2.08 OD
EC50 [2]: 22.4 nM
Maximum MFI [2]: 1570 MFI
Maximum inhibition rate (%) [3]: 20%
EC50, HEK293/OX40/NF-kb luciferase reporter [4]: 30.3 nM
Maximum fluorescence signal value, HEK293/OX40/NF-kb luciferase reporter [4]: 147000 luminescence
EC50 [5]: 0.0814 nM
Maximum OD [5]: 2.28 OD

B8: PR002068 (antibody, human IgG1, V domains shown)
VH: EVQLLESGGGLVQPGGSLRLSCAASGFSFSSYAMTWVRQAPGKGLEWVSAISGGGGSIFYADSVRGRFTISRDNSKNTLYLQMNSLRAEDTAVYYCANGMTGSTDVDYWGQGTQVTVSS
notes: as for B1
EC50 [1]: 0.253 nM
Maximum OD [1]: 2.38 OD
EC50 [2]: 10.1 nM
Maximum MFI [2]: 2130 MFI
IC50 [3]: 23.1 nM
Maximum inhibition rate (%) [3]: 25%
EC50, HEK293/OX40/NF-kb luciferase reporter [4]: 22.9 nM
Maximum fluorescence signal value, HEK293/OX40/NF-kb luciferase reporter [4]: 139000 luminescence
EC50 [5]: 0.092 nM
Maximum OD [5]: 2.42 OD

B9: PR002069 (antibody, human IgG1, V domains shown)
VH: EVQLLESGGGLVQPGGSLRLSCAASGFTFSSYAMSWVRQAPGKGREWVSAISGGGGNTFYADSVRGRFTISRDNSKNTLYLQMNSLRAEDTAVYYCANGVTGTTDVDYWGQGTLVTVSS
notes: as for B1
EC50 [1]: 0.129 nM
Maximum OD [1]: 2.24 OD
EC50 [2]: 4.43 nM
Maximum MFI [2]: 2990 MFI
IC50 [3]: 50.9 nM
Maximum inhibition rate (%) [3]: 53%
EC50, HEK293/OX40/NF-kb luciferase reporter [4]: 6.27 nM
Maximum fluorescence signal value, HEK293/OX40/NF-kb luciferase reporter [4]: 99700 luminescence
EC50 [5]: 0.051 nM
Maximum OD [5]: 2.24 OD

B10: PR002070 (antibody, human IgG1, V domains shown)
VH: EVQLLESGGGLVQPGGSLRLSCIASGFSFSSYAMSWVRQAPGKGLEWVSAISGRGGSTFYADSVRGRFNISRDNSKNTLYLQMNSLRVEDTAVYYCANGMTGTTDVDYWGQGTLVTVSS
notes: as for B1
EC50 [1]: 0.132 nM
Maximum OD [1]: 2.51 OD
EC50 [2]: 4.39 nM
Maximum MFI [2]: 2530 MFI
IC50 [3]: 67.6 nM
Maximum inhibition rate (%) [3]: 46%
EC50, HEK293/OX40/NF-kb luciferase reporter [4]: 7.6 nM
Maximum fluorescence signal value, HEK293/OX40/NF-kb luciferase reporter [4]: 129000 luminescence
EC50 [5]: 0.0729 nM
Maximum OD [5]: 2.4 OD

B11: PR002075 (antibody, human IgG1, V domains shown)
VH: EVQLVETGGGLIQPGGSLRLSCAASGFTFSSYAMSWVRQAPGKGLEWVSAISGSGGNTYYADSVRGRFTISRDNSKNTLYLQMNSLRAEDTAVYYCANGITGTTDVDYWGQGTRVTVSS
notes: as for B1
EC50 [1]: 0.415 nM
Maximum OD [1]: 3.07 OD
EC50 [5]: 0.0618 nM
Maximum OD [5]: 2.48 OD
